Measurements: publication PMC12443421
Where two headings read alike, the source gives them in different places. Values belong to the substance of their own block, whether it stands above or below them.

Assays:
[1] = molecular target: acidic patch mutant (APM) H3K4me3 147 bp nucleosome (human) (UniProt P62807)
[2] = molecular target: acidic patch mutant (APM) H3K4me3 147 bp nucleosome (human) (UniProt P62807); test: native gel or EMSA; direct binding: 100 nM nucleosome and varying KDM5A; 50 mM HEPES pH 7.5, 50 mM KCl, 1 mM BME, 0.01% Tween-20, 0.01% BSA, 5% sucrose; 1 h on ice; gel at 4 C; SYBR gold; fit to specific binding with Hill slope
[3] = molecular target: acidic patch mutant (APM) unmodified 147 bp nucleosome (H2A E61A, E64S, N68A, D72S, N89A, D90A, E91S) (human) (UniProt P62807); test: as above
[4] = molecular target: acidic patch mutant (APM) unmodified 147 bp nucleosome (H2A E61A, E64S, N68A, D72S, N89A, D90A, E91S), P62807;Q71DI3;P62805; test: EMSA
[5] = molecular target: KDM5A^CAT (lysine demethylase 5A, residues 1-801) (UniProt P29375); test: EMSA

KDM5A^CAT (lysine demethylase 5A, residues 1-801) (from UniProt P29375 1-801) (domain or fragment), sequence (P29375 1-801): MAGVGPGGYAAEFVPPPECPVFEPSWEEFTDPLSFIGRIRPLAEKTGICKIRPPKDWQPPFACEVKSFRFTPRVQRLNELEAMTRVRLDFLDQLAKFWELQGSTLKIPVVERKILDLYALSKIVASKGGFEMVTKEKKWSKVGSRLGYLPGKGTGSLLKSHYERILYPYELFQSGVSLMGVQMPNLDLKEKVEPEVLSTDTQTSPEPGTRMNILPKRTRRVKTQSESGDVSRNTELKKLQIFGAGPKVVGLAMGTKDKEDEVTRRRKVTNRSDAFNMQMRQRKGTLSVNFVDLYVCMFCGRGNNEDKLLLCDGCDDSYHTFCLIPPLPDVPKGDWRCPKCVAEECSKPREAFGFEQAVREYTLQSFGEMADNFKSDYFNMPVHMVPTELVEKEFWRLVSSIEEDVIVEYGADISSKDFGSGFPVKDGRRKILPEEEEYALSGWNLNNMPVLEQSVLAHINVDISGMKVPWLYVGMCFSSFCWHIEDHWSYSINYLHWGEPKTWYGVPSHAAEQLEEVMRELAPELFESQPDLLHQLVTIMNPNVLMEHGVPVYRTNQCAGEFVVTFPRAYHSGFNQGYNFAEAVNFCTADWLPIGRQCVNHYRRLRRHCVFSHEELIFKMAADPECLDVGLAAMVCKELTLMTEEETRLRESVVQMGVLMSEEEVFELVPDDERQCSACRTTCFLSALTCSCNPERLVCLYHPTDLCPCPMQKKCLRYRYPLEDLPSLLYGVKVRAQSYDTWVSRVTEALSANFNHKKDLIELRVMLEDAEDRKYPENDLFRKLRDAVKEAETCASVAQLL

fold decrease in demethylation of H3K4me3 on APM 147 bp nucleosomes relative to wild-type nucleosomes, quantitative western blot, single turnover (5 uM KDM5A enzyme, 50 nM substrate, 50 mM KCl) [1]: 9 fold
fold lower affinity relative to the wild-type H3K4me3 nucleosome [2]: 4 fold
fold loss in affinity relative to the wild-type 147 bp nucleosome [3]: 3 fold
Substance: KDM5A^CAT (lysine demethylase 5A, residues 1-801) (from UniProt P29375 1-801) (domain or fragment)

Kd [4]: 12 µM
Substance: KDM5A^CAT (lysine demethylase 5A, residues 1-801) (from UniProt P29375) R280A; R282A

Kd [5]: 12 µM
Substance: wild-type unmodified 147 bp nucleosome (nucleosome core particle) (from UniProt P04908;P62807;Q71DI3;P62805) H2A:E61A; H2A:E64S; H2A:N68A; H2A:D72S; H2A:N89A; H2A:D90A; H2A:E91S

Kd [4]: 14 µM
Kd ([4]; 0-32 µM KDM5A^MutR titration): 14 µM
Substance: KDM5A^CAT (lysine demethylase 5A, residues 1-801) (from UniProt P29375) R210A; R217A; R219A; R220A; R232A; R264A; R265A; R266A; R271A; R280A; R282A

Kd [4]: 15 µM
Substance: KDM5A^CAT (lysine demethylase 5A, residues 1-801) (from UniProt P29375) R217A; R219A; R220A

Kd [4]: 10.1 µM
Substance: KDM5A^CAT (lysine demethylase 5A, residues 1-801) (from UniProt P29375) R264A; R265A; R266A; R271A
